Measured values reported in patent publication US20180194850A1 (GENERAL HOSPITAL, published 2018).

What was measured:
[1] = target: T1, EGCRL2…; experiment: CLIPS peptide-array ELISA [Continued]
T1 sequence (peptide, 2 = Cys(Acm)): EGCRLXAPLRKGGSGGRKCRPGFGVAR

[2] = target: T2, S03933; experiment: linear peptide ELISA (absorbance); Affinity +
T2 sequence (peptide): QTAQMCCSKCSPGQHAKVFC

[3] = target: T3, peptide fragment defined by residues 130-149 of SEQ ID NO: 7 within human TNFR2 (KQEGCRLCAPLRKCRPGFGV) (human); experiment: comparison of affinity for linear peptides; assay not named in the sentence (linear peptide ELISA, FIG. 13B)
T3 construct: also called linear peptide containing the KCRPG motif
T3 peptide: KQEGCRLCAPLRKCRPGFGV
Description: ELISA was also used to determine linear epitopes present on the extracellular surface of TNFR2.
Linear peptides corresponding to various regions within the TNFR2 primary sequence were purchased from GenScript (Piscataway, N.J.), diluted in coating buffer and placed on Immulon 4HBX Flat Bottom Microtiter Plates (Thermo Scientific) at a concentration of 1 μg/well. Primary TNFR2 antagonistic antibodies (0.1 μg/well) were incubated with substrates. Secondary antibodies against rodent IgG were used to detect the primary antibodies. Absorbance was measured using the SPECTRAMAX® 190 Absorbance Plate Reader and analyzed with SoftMax Pro 6.3 (Molecular Devices).

Raw luminescence data [1]: 358
Reading [2]: 0.1
fold greater affinity than for the peptide of residues 48-67 (…, SEQ ID NO: 18) [3]: 40 fold
B1: antagonistic TNFR2 antibody TNFRAB1 (antibody, V domains shown)
VH: EVQLQESGGGLVKPGGSLKLSCAASGFTFSSYVMSWVRQTPEKRLEWVATISSGGSYTYYPDSVKGRFTISRDNAKNTLYLQMSSLRSEDTAMYYCARQRVDGYSSYWYFDVWGAGTAVTVSS
VL: DIVLTQSPAIMSASPGEKVTITCSASSSVYYMYWFQQKPGTSPKLWIYSTSNLASGVPVRFSGSGSGTSYSLTISRMEAEDAATYYCQQRRNYPYTFGGGTKLEIKR
notes: Murine monoclonal IgG; For SPR the antibody was biotinylated and captured on streptavidin; also called TNFR2 antagonist 1
